The values below come from patent US20230406884A1 (ZEALAND PHARMA A S, published 2023).

*1 amine or outer side, *2 acyl side, *3 side chain or, on linkers, in order; H or OH if unused. Bridges are numbered along the chain shown (N, C = ends). Where no end group is shown, it is not given here. [ ]: non-standard residue; d: D form. formula (I) linker = non-peptide linker -N(R1)-C(R2)(R3)-C(R4)(R5)- (R1 H, R2 H, R3 CH3, R4 H, R5 C(O)NH-tBu), its N is acylated by the C-terminal carbonyl and its C(R4)(R5) carbon is bonded to the N-terminal N; X3 = 3‑aminomethyl‑4‑(4-(1-piperazinyl)phenyl)benzoic acid, O=C(c1ccc(-c2ccc(N3CCN([*:3])CC3)cc2)c(CN[*:1])c1)[*:2]; Thr(OMe) = O-methyl-threonine, CO[C@H](C)[C@H](N[*:1])C(=O)[*:2]; dPhe(4-CH2NH2) = NCc1ccc(C[C@@H](N)C(=O)O)cc1; Phe(4-CH2NH2) = NCc1ccc(C[C@H](N)C(=O)O)cc1; Hyp = O=C(O)[C@@H]1C[C@@H](O)CN1; d(β3hK) = NCCCC[C@@H](N)CC(=O)O; β3hK = NCCCC[C@H](N)CC(=O)O

Experiment [1] has as its target T1, recombinant integrin α4β1 (R&D Systems, 5397-A3-050) (UniProt P13612 34-970; P05556 21-728).
T1 construct: bought; coated on the ELISA plate; also called a4b1; α4β1 integrin
The experiment is described as follows: competition ELISA, VCAM-Fc on coated α4β1. As to the method:
(§1) The plate was incubated at 4° C. overnight. […] The plate was then incubated for 1 hour at room temperature. The plate was washed three times with wash buffer (50 mM Tris, 100 mM NaCl, 1 mM MnCl₂, 0.05% Tween). To each well, 50 μl of compound diluted in assay buffer was added by transfer from a compound serial dilution plate. […] The plate was incubated at room temperature with shaking (300 rpm) for 2 hours to reach binding equilibrium. Then the plate was washed three times in wash buffer and 100 μl anti-human IgG Fc specific-HRP (Abcam, Ab97225) diluted at 1:2000 in assay buffer was added to each well. The plate was incubated at room temperature for 1 hour under agitation.
In general terms: In an ELISA, binding on a coated surface is turned into a signal by an enzyme label.

Experiment [2] addresses T1, recombinant integrin α4β1 (R&D Systems, …). The experiment is described as follows: IC50 on α4β1 / IC50 on α4β7. As to the method: as §1
(§2) The plate was incubated at 4° C. overnight. […] The plate was then incubated for 1 hour at room temperature. The plate was washed three times with wash buffer (50 mM Tris, 100 mM NaCl, 1 mM MnCl₂, 0.05% Tween). To each well, 50 μl of compound diluted in assay buffer was added by transfer from a compound serial dilution plate. […] The plate was incubated at room temperature with shaking (300 rpm) for 2 hours to reach binding equilibrium.

In experiment [3] the target is T2, recombinant integrin α4β7 (R&D Systems, 5397-A3-050) (UniProt P13612 34-970; P26010 20-723).
T2 construct: bought; coated on the ELISA plate; also called a4b7; α4β7 integrin
Kind of experiment: competition ELISA, MAdCAM-Fc on coated α4β7. Here is the method: as §1
T2 sequence (P13612 34-970, chain 1 of 2): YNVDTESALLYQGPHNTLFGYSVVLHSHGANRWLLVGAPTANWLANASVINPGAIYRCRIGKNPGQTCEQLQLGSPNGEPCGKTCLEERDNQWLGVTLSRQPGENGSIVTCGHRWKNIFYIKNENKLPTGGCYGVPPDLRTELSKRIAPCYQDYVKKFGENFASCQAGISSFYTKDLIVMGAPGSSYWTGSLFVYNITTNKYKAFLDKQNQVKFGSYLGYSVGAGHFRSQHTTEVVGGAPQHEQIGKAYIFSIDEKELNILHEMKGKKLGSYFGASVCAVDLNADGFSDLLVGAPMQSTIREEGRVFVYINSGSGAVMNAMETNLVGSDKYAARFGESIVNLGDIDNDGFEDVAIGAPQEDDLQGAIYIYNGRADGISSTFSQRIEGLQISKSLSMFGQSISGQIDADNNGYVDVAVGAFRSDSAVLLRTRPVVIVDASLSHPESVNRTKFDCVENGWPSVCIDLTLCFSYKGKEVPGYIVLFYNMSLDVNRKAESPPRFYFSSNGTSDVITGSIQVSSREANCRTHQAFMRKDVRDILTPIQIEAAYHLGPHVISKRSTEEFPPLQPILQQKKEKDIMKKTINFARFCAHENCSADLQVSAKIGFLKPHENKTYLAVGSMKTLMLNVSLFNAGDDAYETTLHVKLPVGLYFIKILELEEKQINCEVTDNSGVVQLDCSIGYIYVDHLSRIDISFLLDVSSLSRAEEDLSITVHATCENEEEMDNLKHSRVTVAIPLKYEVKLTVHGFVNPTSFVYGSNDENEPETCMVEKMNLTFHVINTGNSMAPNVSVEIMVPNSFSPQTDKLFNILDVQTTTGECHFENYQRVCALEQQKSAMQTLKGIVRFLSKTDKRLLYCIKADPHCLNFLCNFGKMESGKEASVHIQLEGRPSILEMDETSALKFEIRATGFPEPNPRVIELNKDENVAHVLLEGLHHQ
T2 sequence (P26010 20-723, chain 2 of 2): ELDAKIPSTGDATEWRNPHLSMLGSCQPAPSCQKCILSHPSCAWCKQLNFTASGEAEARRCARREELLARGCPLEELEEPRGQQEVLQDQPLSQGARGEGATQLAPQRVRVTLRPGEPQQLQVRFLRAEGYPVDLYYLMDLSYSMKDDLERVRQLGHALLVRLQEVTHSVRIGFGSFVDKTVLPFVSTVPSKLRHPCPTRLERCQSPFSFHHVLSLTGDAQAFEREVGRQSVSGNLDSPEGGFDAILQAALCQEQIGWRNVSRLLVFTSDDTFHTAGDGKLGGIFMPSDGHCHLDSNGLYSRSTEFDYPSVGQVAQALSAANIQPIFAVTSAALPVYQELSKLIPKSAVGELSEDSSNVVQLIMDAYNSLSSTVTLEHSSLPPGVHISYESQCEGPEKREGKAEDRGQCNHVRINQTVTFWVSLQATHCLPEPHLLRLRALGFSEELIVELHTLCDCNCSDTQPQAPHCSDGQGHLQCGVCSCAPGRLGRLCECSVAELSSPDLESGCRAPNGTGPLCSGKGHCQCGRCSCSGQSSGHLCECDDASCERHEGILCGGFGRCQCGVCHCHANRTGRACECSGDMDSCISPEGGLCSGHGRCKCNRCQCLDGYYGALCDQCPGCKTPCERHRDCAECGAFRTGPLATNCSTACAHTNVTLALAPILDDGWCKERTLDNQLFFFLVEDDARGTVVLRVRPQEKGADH

For experiment [4], the target named is integrin α4β7 on RPMI8866 human cells (human, UniProt P13612 34-1032; P26010 20-798). Kind of experiment: cell-based or functional assay.
Chain of integrin α4β7 on RPMI8866 human cells (P13612 34-1032, chain 1 of 2): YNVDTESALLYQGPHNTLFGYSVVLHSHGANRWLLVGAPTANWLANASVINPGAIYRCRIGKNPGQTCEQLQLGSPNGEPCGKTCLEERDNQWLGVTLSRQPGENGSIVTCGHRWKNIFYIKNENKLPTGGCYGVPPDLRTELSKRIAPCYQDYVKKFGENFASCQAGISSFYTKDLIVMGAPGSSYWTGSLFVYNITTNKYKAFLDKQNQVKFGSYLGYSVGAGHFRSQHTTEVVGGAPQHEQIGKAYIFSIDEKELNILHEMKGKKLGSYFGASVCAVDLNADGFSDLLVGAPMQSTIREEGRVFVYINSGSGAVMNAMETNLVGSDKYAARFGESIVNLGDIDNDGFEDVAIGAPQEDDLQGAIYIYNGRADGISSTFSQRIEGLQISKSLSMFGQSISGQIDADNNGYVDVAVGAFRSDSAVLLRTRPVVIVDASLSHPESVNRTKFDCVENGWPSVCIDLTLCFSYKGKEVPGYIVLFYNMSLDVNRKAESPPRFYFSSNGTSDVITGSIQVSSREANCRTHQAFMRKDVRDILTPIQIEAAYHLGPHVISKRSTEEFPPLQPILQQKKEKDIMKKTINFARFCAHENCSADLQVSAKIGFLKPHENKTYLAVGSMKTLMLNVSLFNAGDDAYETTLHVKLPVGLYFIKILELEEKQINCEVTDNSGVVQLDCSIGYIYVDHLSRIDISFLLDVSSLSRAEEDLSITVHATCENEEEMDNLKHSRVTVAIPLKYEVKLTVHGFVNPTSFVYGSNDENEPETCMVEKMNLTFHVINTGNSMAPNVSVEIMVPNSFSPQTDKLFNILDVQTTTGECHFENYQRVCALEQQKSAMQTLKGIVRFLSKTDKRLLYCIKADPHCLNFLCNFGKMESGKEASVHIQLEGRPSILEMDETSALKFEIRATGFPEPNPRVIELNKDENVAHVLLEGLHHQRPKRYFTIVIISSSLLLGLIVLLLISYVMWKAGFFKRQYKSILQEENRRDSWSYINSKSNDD
Chain of integrin α4β7 on RPMI8866 human cells (P26010 20-798, chain 2 of 2): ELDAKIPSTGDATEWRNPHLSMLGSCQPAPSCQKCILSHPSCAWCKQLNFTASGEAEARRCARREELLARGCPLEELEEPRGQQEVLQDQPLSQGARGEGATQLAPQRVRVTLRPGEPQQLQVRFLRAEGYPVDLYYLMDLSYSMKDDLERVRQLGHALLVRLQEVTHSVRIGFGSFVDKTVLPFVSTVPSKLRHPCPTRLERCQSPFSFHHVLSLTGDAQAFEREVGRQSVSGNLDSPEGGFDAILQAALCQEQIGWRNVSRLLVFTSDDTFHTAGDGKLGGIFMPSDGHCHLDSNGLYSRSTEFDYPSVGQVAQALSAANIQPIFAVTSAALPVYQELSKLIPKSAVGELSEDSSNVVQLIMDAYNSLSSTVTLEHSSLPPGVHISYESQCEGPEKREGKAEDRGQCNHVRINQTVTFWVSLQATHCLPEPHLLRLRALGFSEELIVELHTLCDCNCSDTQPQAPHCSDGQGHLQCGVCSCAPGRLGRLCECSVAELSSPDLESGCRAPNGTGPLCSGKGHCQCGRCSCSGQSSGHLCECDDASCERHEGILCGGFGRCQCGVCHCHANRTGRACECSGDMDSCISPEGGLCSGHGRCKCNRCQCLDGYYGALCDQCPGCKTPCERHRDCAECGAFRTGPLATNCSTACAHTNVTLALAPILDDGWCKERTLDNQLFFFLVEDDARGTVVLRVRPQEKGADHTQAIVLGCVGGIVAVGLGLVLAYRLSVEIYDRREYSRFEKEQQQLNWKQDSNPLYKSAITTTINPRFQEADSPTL
Experiment [5] has as its target T3, recombinant integrin α4β1 (R&D Systems, 5397-A3-050 [sic]) (UniProt P13612 34-970; P05556 21-728).
T3 construct: coated on the ELISA plate at 0.5 µg/ml; the printed catalogue number is the same as for α4β7; also called a4b1; α4β1 integrin
Kind of experiment: α4β1-VCAM-1 competition ELISA. As to the method:
as §1

In experiment [6] the target is T4, recombinant integrin α4β7 (R&D Systems, 5397-A3-050) (UniProt P13612 34-970; P26010 20-723).
T4 construct: coated on the ELISA plate at 1 µg/ml; also called a4b7; α4β7 integrin
The experiment is described as follows: α4β7-MAdCAM-1 competition ELISA. As to the method: as §1
T4 sequence (P13612 34-970, chain 1 of 2): as the sequence (P13612 34-970, chain 1 of 2) above
T4 sequence (P26010 20-723, chain 2 of 2): as the sequence (P26010 20-723, chain 2 of 2) above

In experiment [7] the target is T3, recombinant integrin α4β1 (R&D Systems, …). Kind of experiment: ratio of ELISA IC50s, α4β1 over α4β7. As to the method: as §1, §2
The target of experiment [8] is T5, integrin α4β7 on human cells (human, UniProt P13612 34-1032; P26010 20-798). Kind of experiment: cell-based or functional assay.
T5 sequence (P13612 34-1032, chain 1 of 2): as the sequence (P13612 34-1032, chain 1 of 2) above
T5 sequence (P26010 20-798, chain 2 of 2): as the sequence (P26010 20-798, chain 2 of 2) above
The target of experiment [9] is T6, integrin α4β1 on human cells (human, UniProt P13612 34-1032; P05556 21-798).
T6 construct: whole, on cells; also called a4b1
Kind of experiment: VCAM-1 competition, FACS on α4β7-negative Th memory cells, human whole blood.

In experiment [10] the target is T5, integrin α4β7 on human cells. The experiment is described as follows: competition with a saturating amount of MAdCAM, flow cytometry on α4β7+ Th memory cells in human whole blood.
Protocol: Cells were washed with 1 mL stain buffer-FBS (BD Biosciences) and resuspended in 100 μl stain Buffer-FBS (BD Biosciences) containing 4 mM MnCl₂. […] Cells were then washed with 1 mL stain buffer-FBS and resuspended in 100 μl stain buffer-FBS. The cells were incubated in the dark for 30 minutes at room temperature with 1 ul Streptavidin APC (Biolegend 0.2 mg/ml) and a panel of antibodies for the detection of memory T helper a4b7-positive cells subset. And amount of 5.0 ul each of the following antibodies were used; CD45 FITC (BioLegend 200 ug/ml), CD29 APC Cy7 (BioLegend 100 ug/ml), Integrin beta7 PE, (BioLegend concentration 50 μg/mL), CD49d V421 (BioLegend 50 μg/mL), CD3 V510 (BioLegend 30 μg/mL), CD4 PECy7 (BioLegend 100 μg/mL), CD45RO PerCP, BioLegend 200 μg/mL). The cells were then washed with stain-buffer-FBS and resuspended in 150 microL stain buffer-FBS for acquisition on the flow cytometer (BD FACSCanto™ flow cytometer and BDFACSDiva™ software). FACS data was acquire by electronic gating on the basis of forward versus side scatter, The cytometer was set to collect 20,000 events in each tube. Cell population were determined using the following markers, CD45+, CD3+, CD4+, CD45RO+, CD49d+, integrin b7, biotinylated ligands.

What is called IC50 is the concentration that gives 50% inhibition. The term EC50 denotes the concentration needed to bring the measured effect to its halfway point.

T3 sequence (P13612 34-970, chain 1 of 2): as the sequence (P13612 34-970, chain 1 of 2) above
T3 sequence (P05556 21-728, chain 2 of 2): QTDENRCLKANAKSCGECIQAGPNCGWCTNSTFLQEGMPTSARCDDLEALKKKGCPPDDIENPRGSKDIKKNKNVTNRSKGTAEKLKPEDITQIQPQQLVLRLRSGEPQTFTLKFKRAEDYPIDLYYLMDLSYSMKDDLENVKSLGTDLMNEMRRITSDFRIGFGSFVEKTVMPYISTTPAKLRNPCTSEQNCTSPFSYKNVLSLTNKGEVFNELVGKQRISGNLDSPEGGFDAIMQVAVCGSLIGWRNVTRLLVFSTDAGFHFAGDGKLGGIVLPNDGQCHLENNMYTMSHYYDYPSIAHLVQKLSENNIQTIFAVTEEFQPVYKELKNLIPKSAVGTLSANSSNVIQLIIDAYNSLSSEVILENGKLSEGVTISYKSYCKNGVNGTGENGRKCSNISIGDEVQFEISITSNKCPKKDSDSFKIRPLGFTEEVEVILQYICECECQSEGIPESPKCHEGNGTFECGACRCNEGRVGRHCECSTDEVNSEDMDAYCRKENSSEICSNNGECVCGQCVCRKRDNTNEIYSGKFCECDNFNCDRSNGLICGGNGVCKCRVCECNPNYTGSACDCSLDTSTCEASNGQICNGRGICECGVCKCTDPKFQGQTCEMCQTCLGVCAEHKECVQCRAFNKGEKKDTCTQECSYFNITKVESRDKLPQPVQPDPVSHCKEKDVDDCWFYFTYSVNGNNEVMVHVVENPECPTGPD
T1 sequence (P13612 34-970, chain 1 of 2): as the sequence (P13612 34-970, chain 1 of 2) above
T1 sequence (P05556 21-728, chain 2 of 2): as the sequence (P05556 21-728, chain 2 of 2) above

B1: Compound No. 40 (peptide)
peptide: PFLD[Thr(OMe)]
modifications: bridge N-C; not fully specified (bridges); printed as Pro Phe Leu Asp X
notes: macrocycle of formula (I); R1 H, R2 H, R3 CH3, R4 H, R5 C(O)-NH-tert-Butyl
Consider B1, for which the IC50 in experiment [1] was 0.119 µM; in [3], 0.063 µM. The “ELISA Assay Ratio b1/b7” value in experiment [2] is 1.9.

In the case of [Hyp]FLDT (linker N-C via formula (I) linker) [Compound No. 32], the “RPMI8866 Adhesion a4b7/MAdCAM IC50” value in [4] worked out at 11.2 µM.

P[Phe(4-CH2NH2)][β3hK]LDI (bridge N-C; not fully specified (bridges); printed as Pro X1 X2 Leu Asp Ile, macrocycle of formula (I)) [Compound No. 215]: the IC50 in experiment [5] turned out to be 0.413 µM; in experiment [6], 0.033 µM.

B2: Compound No. 253 (peptide)
peptide: cyclo(P[dPhe(4-CH2NH2)][β3hK]LDI)
modifications: also: macrocycle closed by non-peptide linker -NH-CH(CH3)-CH(C(O)NH-tBu)- between Pro1 N and C-terminal C
notes: macrocycle of formula (I)
B2: the 50% inhibitory concentration (IC50) in experiment [5] came out at 1.09 µM; in experiment [6], 0.069 µM.

B3: Compound No. 254 (peptide)
peptide: cyclo(P[Phe(4-CH2NH2)][β3hK]LDV)
modifications: also: macrocycle closed by non-peptide linker -NH-CH(CH3)-CH(C(O)NH-tBu)- between Pro1 N and C-terminal C
notes: macrocycle of formula (I)
Consider B3, for which the IC50 turned out to be 1.8 µM in experiment [5] and 0.055 µM in experiment [6]. Further, in experiment [7], the “ELISA Assay Ratio b1/b7” value turned out to be 33.

B4: Compound No. 517 (peptide)
peptide: P[X3]LDT
modifications: bridge (positions not given here); not fully specified (residue 2, bridges); also: homodimer: diphenic acid diamide on piperazine N of X2 joins two copies
notes: also called ET3764; ET03764
In the case of B4, in experiment [8], the “IC50 in the RPM18866 cell adhesion assay” value worked out at 0.0099 µM. Further, in [9], the IC50 came out at 0.6 µM. In experiment [10], the concentration giving a half-maximal response (EC50) stood at 0.038 µM.

On to PXGLDT (X^y (4-aminomethyl-Phe), macrocycle of formula (I)) [Compound No. 165], for which the concentration for half-maximal inhibition (IC50) in [5] amounted to 2.92 µM.

PXVLDT (X^y Tyr(OAllyl); X^z dVal, macrocycle of formula (I)) [Compound No. 166]: the 50% inhibitory concentration (IC50) in experiment [5] was determined as 1.38 µM.

As to PXSLDT (X^y Tyr(OAllyl); X^z dSer, macrocycle of formula (I)) [Compound No. 167], the IC50 in experiment [5] amounted to 2 µM.

For PYXXDT (X^z dPip; X^1 tertbutylAla, macrocycle of formula (I)) [Compound No. 150], the concentration for half-maximal inhibition (IC50) in experiment [5] came to 0.447 µM; in experiment [6] it was 0.054 µM. The “ELISA Assay Ratio b1/b7” value in experiment [7] came to 8.2.

As to PF[d(β3hK)]LDI (bridge N-C; not fully specified (bridges); printed as Pro Phe X Leu Asp Ile, macrocycle of formula (I)) [Compound No. 220], the IC50 in [5] was determined as 1.74 µM; in experiment [6], 0.096 µM. The “ELISA Assay Ratio b1/b7” value in experiment [7] was determined as 18.2.

B5: Compound No. 231 (peptide)
peptide: PR[β3hK]LDT
modifications: bridge N-C; not fully specified (bridges); also: macrocycle closed by non-peptide linker -NH-CH(CH3)-CH(C(O)NH-tBu)- between Pro1 N and C-terminal C
notes: macrocycle of formula (I)
As for B5, the 50% inhibitory concentration (IC50) in experiment [5] was 0.993 µM.
